For assay [1], the target named is Sld3 (UniProt P53135). Put plainly: anti-Mcm2 co-IP, Sld3 blot. Particulars: reference: wild-type mcm2; sites S164,S170.
Assay [2] deals with GST-Mcm10 (budding yeast) (UniProt P32354). Put plainly: pull-down; 30 pmol GST-tagged protein on Glutathione Sepharose, varying concentrations of 32P-labelled PKA-tagged protein in solution; GST binding buffer (40 mM Tris–HCl pH 7.5, 100 mM NaCl, 0.1 mM EDTA, 10% glycerol, 0.1% Triton X-100, 1 mM DTT, 0.1 mg/ml BSA), 100 μl, 30°C, 10 min; SDS-PAGE and phosphorimaging; in some panels with 5 mM ATP or ATPγS, or with a third labelled protein (Mcm10, Sld3) added.
GST-Mcm10 (budding yeast), sequence (P32354 whole entry): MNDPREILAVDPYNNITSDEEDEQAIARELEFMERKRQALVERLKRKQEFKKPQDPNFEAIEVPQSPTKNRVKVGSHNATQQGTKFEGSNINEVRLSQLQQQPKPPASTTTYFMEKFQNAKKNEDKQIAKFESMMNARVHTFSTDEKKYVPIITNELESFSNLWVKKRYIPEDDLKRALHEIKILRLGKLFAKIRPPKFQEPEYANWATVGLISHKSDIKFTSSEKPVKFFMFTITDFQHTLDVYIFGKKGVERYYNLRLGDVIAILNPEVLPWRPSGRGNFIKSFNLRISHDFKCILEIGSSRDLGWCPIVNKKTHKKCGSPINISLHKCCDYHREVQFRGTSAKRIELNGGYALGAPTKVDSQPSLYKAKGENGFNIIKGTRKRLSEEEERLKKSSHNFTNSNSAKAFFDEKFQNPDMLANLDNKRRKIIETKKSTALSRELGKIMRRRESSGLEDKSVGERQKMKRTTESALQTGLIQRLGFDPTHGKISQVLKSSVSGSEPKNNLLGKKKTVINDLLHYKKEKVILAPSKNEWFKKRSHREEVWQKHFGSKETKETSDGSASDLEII

As to “Mcm2 (from UniProt P29469) mcm2-2A (S164A S170A)”, the “binding against the reference” value in assay [1] is “lost”.

Regarding “PKA-Mcm2–7 complex (radiolabeled, wild type), P29469 1-868; P24279 1-971; P30665 1-933; P29496 1-775; P53091 1-1017; P38132 1-845”, the signal relative to GST alone in assay [2] was over 10 times.

Values taken from paper PMC4705653.
